# Experimental data from patent US20260242478A1 (published 2026).
# Read-outs that look alike come from different tables or passages of the source. Where no end group is shown, it is not given here.
# T1: Peptide-233 (cysteine pairing not given here; also: biotinylated, site not given here)
# T1 peptide: GEKWCIPDWMCSGF
# T2: Peptide-263 (cysteine pairing not given here; also: biotinylated, site not given here)
# T2 peptide: AVKACIPEWMCIGF
# T3: Peptide-270 (cysteine pairing not given here; also: biotinylated, site not given here)
# T3 peptide: ESRLCVPAWMCAGF
# T4: Peptide-227 (cysteine pairing not given here; also: biotinylated, site not given here)
# T4 peptide: LDNWCKPSWMCTGF
# T5: Peptide-283 (cysteine pairing not given here; also: biotinylated (site not given here))
# T5 peptide: TVAYCKPAWMCQGF
# T6: Peptide-285 (cysteine pairing not given here; also: biotinylated (site not given here))
# T6 peptide: VERLCTPAWMCHGF
# T7: Peptide-286 (cysteine pairing not given here; also: biotinylated (site not given here))
# T7 peptide: VLKYCIPDWMCAGI
# T8: Peptide-267 (cysteine pairing not given here; also: biotinylated, site not given here)
# T8 peptide: FTNYCVPSWMCTGF
# T9: Peptide-230 (cysteine pairing not given here; also: biotinylated, site not given here)
# T9 peptide: VTKWCIPPWMCEVT
# T10: Peptide-282 (cysteine pairing not given here; also: biotinylated (site not given here))
# T10 peptide: IVVKCVPSWMCEGF
# T11: Peptide-236 (cysteine pairing not given here; also: biotinylated, site not given here)
# T11 peptide: DVKLCKPEWMCYGL
# T12: Peptide-225 (cysteine pairing not given here; also: biotinylated, site not given here)
# T12 peptide: IPKSCIPSWMCTGF
# T13: Peptide-239 (cysteine pairing not given here; also: biotinylated, site not given here)
# T13 peptide: IDIRCTPIWMCVGF
# T14: Peptide-277 (cysteine pairing not given here; also: biotinylated (site not given here))
# T14 peptide: VVIKCKPEWMCSGF
# T15: Peptide-235 (cysteine pairing not given here; also: biotinylated, site not given here)
# T15 peptide: VEKLCTPIWMCLGF
# T16: Peptide-284 (cysteine pairing not given here; also: biotinylated (site not given here))
# T16 peptide: TEVRCTPPWMCLGF
# T17: Peptide-232 (cysteine pairing not given here; also: biotinylated, site not given here)
# T17 peptide: LDKWCVPKWMCSGL
# T18: Peptide-219 (cysteine pairing not given here; also: biotinylated, site not given here)
# T18 peptide: HVKLCKPAWMCQGL
# T19: Peptide-268 (cysteine pairing not given here; also: biotinylated, site not given here)
# T19 peptide: VEKVCKPVWMCVGF
# T20: Peptide-271 (cysteine pairing not given here; also: biotinylated, site not given here)
# T20 peptide: EDILCKPKWMCEGF
# T21: Peptide-274 (cysteine pairing not given here; also: biotinylated, site not given here)
# T21 peptide: ITPVCKPLWMCSGL
# T22: Peptide-205 (cysteine pairing not given here; also: biotinylated (site not given here))
# T22 construct: PSMA peptide mask (P2)
# T22 peptide: MCQWDKINYWMDCD
# T23: Peptide-179 (cysteine pairing not given here; also: biotinylated (site not given here))
# T23 construct: PSMA peptide mask (P2)
# T23 peptide: LMKWCTPRWMCAAE
# T24: Peptide-180 (cysteine pairing not given here; also: biotinylated (site not given here))
# T24 construct: PSMA peptide mask (P2)
# T24 peptide: IAVLCQPNWMCAGF
# T25: Peptide-204 (cysteine pairing not given here; also: biotinylated (site not given here))
# T25 construct: PSMA peptide mask (P2)
# T25 peptide: QCTWNEKTWWMECE
# T26: Peptide-202 (cysteine pairing not given here; also: biotinylated (site not given here))
# T26 construct: PSMA peptide mask (P2)
# T26 peptide: MCQWDELNYWMDCD
# T27: Peptide-194 (cysteine pairing not given here; also: biotinylated (site not given here))
# T27 construct: PSMA peptide mask (P2)
# T27 peptide: SKLLCVPPWMCYHV
# T28: Peptide-181 (cysteine pairing not given here; also: biotinylated (site not given here))
# T28 construct: PSMA peptide mask (P2)
# T28 peptide: PELRCVPFWMCSFN
# B1: PSMA Fab (SEQ ID NOs: 19, 20) (Fab, V domains shown)
# VH: QVQLVESGGGVVQPGRSLRLSCAASGFAFSRYGMHWVRQAPGKGLEWVAVIWYDGSNKYYADSVKGRFTISRDNSKNTQYLQMNSLRAEDTAVYYCARGGDFLYYYYYGMDVWGQGTTVTVSS
# VL: DIQMTQSPSSLSASVGDRVTITCRASQGISNYLAWYQQKTGKVPKFLIYEASTLQSGVPSRFSGGGSGTDFTLTISSLQPEDVATYYCQNYNSAPFTFGPGTKVDIKR
# notes: also called 006 PSMA Fab; anti-PSMA Fab
# B2: PSMA Fab (SEQ ID NOs: 19, 20) (Fab, V domains shown)
# VH: B1 VH
# VL: B1 VL
# notes: as for B1
# Assays:
# Peptide-233 = biological target: T1, Peptide-233; assay: BLI, biotinylated peptide on sensor
# Peptide-263 = biological target: T2, Peptide-263; assay: BLI, biotinylated peptide on sensor
# Peptide-270 = biological target: T3, Peptide-270; assay: BLI, biotinylated peptide on sensor
# Peptide-227 = biological target: T4, Peptide-227; assay: BLI, biotinylated peptide on sensor
# Peptide-283 = biological target: T5, Peptide-283; assay: BLI, biotinylated peptide on sensor
# Peptide-285 = biological target: T6, Peptide-285; assay: BLI, biotinylated peptide on sensor
# Peptide-286 = biological target: T7, Peptide-286; assay: BLI, biotinylated peptide on sensor
# Peptide-267 = biological target: T8, Peptide-267; assay: BLI, biotinylated peptide on sensor
# Peptide-230 = biological target: T9, Peptide-230; assay: BLI, biotinylated peptide on sensor
# Peptide-282 = biological target: T10, Peptide-282; assay: BLI, biotinylated peptide on sensor
# Peptide-236 = biological target: T11, Peptide-236; assay: BLI, biotinylated peptide on sensor
# Peptide-225 = biological target: T12, Peptide-225; assay: BLI, biotinylated peptide on sensor
# Peptide-239 = biological target: T13, Peptide-239; assay: BLI, biotinylated peptide on sensor
# Peptide-277 = biological target: T14, Peptide-277; assay: BLI, biotinylated peptide on sensor
# Peptide-235 = biological target: T15, Peptide-235; assay: BLI, biotinylated peptide on sensor
# Peptide-284 = biological target: T16, Peptide-284; assay: BLI, biotinylated peptide on sensor
# Peptide-232 = biological target: T17, Peptide-232; assay: BLI, biotinylated peptide on sensor
# Peptide-219 = biological target: T18, Peptide-219; assay: BLI, biotinylated peptide on sensor
# Peptide-268 = biological target: T19, Peptide-268; assay: BLI, biotinylated peptide on sensor
# Peptide-271 = biological target: T20, Peptide-271; assay: BLI, biotinylated peptide on sensor
# Peptide-274 = biological target: T21, Peptide-274; assay: BLI, biotinylated peptide on sensor
# Peptide-205 = biological target: T22, Peptide-205; assay: BLI (Octet), biotinylated peptide on streptavidin sensor, PSMA Fab titrated, 1:1 model
# Peptide-179 [1] = biological target: T23, Peptide-179; assay: as above
# Peptide-180 [2] = biological target: T24, Peptide-180; assay: as above
# Peptide-204 = biological target: T25, Peptide-204; assay: as above
# Peptide-202 = biological target: T26, Peptide-202; assay: as above
# Peptide-194 = biological target: T27, Peptide-194; assay: as above
# Peptide-181 = biological target: T28, Peptide-181; assay: ELISA, biotinylated peptide captured on neutravidin, PSMA Fab titrated
# Peptide-179 [3] = biological target: T23, Peptide-179; assay: as above
# Peptide-180 [4] = biological target: T24, Peptide-180; assay: as above
# Peptide-179 [5] = biological target: T23, Peptide-179; assay: as above
# Ab-15 [6] = assay: binding ELISA: biotinylated peptide on neutravidin plate, Ab-15 titrated
# Ab-15 [7] = assay: BLI (Octet): sensor loaded with 200 nM biotinylated peptide, 100 nM Ab-15;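 on t1/2: binding association and dissociation tracked in real time, fitted to a 1:1 binding model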
# Ab-15 [8] = assay: BLI (Octet): biotinylated peptide on sensor, Ab-15 titrated, 1:1 model
# Ab-15 [9] = assay: BLI (Octet): sensor loaded with 200 nM biotinylated peptide, 100 nM Ab-15; remark: listed apart in the source;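 on t1/2: binding association and dissociation tracked in real time, fitted to a 1:1 binding model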
# Ab-15 [10] = assay: binding ELISA: biotinylated peptide on neutravidin plate, Ab-15 titrated; remark: listed apart in the source
# Ab-15 [11] = assay: BLI (Octet): sensor loaded with 20 nM biotinylated peptide, 100 nM Ab-15
# Ab-15 [12] = assay: competition ELISA: peptide titrated against 1 nM Ab-15; competitor plate-bound CD28
# Ab-15 [13] = assay: as above; remark: listed apart in the source
binder,measurement,setting,value
B1,binding result,Peptide-233,binds
same,binding result,Peptide-263,binds
same,binding result,Peptide-270,binds
same,binding result,Peptide-227,binds
same,binding result,Peptide-283,binds
same,binding result,Peptide-285,binds
same,binding result,Peptide-286,binds
same,binding result,Peptide-267,binds
same,binding result,Peptide-230,binds
same,binding result,Peptide-282,binds
same,binding result,Peptide-236,binds
same,binding result,Peptide-225,binds
same,binding result,Peptide-239,binds
same,binding result,Peptide-277,binds
same,binding result,Peptide-235,binds
same,binding result,Peptide-284,binds
same,binding result,Peptide-232,binds
same,binding result,Peptide-219,binds
same,binding result,Peptide-268,binds
same,binding result,Peptide-271,binds
same,binding result,Peptide-274,binds
B2,Off rate t1/2,Peptide-205,< 1 min
same,Off rate t1/2,Peptide-179 [1],1.09 min
same,Off rate t1/2,Peptide-180 [2],0.75 min
same,Off rate t1/2,Peptide-204,< 1 min
same,Off rate t1/2,Peptide-202,< 1 min
same,Off rate t1/2,Peptide-194,< 1 min
same,EC50,Peptide-181,3 nM
same,EC50,Peptide-179 [3],5.9 nM
same,EC50,Peptide-180 [4],33 nM
same,EC50,Peptide-179 [5],120 nM
"MDWCPRDLWVHCFA (cysteine pairing not given here; also: biotinylated, site not given here, CD28 peptide mask) [Peptide-41]",EC50,Ab-15 [6],4 nM
same,Octet signal (200 nM peptide),Ab-15 [7],1.8
same,Kd,Ab-15 [8],15.1 nM
same,t1/2,Ab-15 [8],15.5 min
same,Octet signal,Ab-15 [9],2.03
same,t1/2,Ab-15 [9],9.8 min
same,EC50,Ab-15 [10],1 nM
same,Octet signal (20 nM peptide),Ab-15 [11],0.509
same,IC50,Ab-15 [12],200 nM
same,IC50,Ab-15 [13],60 nM
